Test results from patent US20230295348A1 (NOVIMMUNE, published 2023).

T1: human recombinant IL-2Rγ (human, UniProt P31785 23-262, limits assumed)
T1 construct: Biotinylated and captured on streptavidin plates in the ELISA; also called IL-2Rg; IL2Rg
T1 sequence (looked up): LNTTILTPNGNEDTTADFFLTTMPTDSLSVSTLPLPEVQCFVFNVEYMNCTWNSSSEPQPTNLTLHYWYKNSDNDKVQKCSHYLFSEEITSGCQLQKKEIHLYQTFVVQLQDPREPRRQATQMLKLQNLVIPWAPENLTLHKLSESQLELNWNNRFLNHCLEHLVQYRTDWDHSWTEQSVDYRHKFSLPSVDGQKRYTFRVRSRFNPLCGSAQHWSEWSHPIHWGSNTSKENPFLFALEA


Columns and labels:
[1] = molecular target: T1, human recombinant IL-2Rγ; assay: direct ELISA, biotinylated recombinant protein on streptavidin plates
[2] = molecular target: T2, human recombinant HER2 (human, UniProt P04626 23-652); assay: as above
T2 construct: Biotinylated and captured on streptavidin plates in the ELISA; also called human epidermal growth factor receptor 2

binding result [1] | binding result [2] | Binder
binds | – | AM5O35 (bispecific antibody, human IgG1, kappa, lambda, L234A L235A, κλ-body: common heavy chain, kappa anti-IL2Rγ light chain (AM5), lambda anti-MSLN light chain (O35); also called AM5O35/N) heavy: not shown light 1: not shown light 2: QPVLTQPVSLSASPGASVSLTCTLRSDIRVRDYRIFWYQQKPGSPPQYLLRYKTDSDKQQGSGVPSRFSGSKDASANAGILLISGLQSEDEADYYCMIWHRTTGTSLVFGGGTKLTVLGQPKAAPSVTLFPPSSEELQANKATLVCLISDFYPGAVTVAWKADSSPVKAGVETTTPSKQSNNKYAASSYLSLTPEQWKSHRSYSCQVTHEGSTVEKTVAPTECS
binds | binds | AM1N2-19 (bispecific antibody, human IgG1, kappa, lambda, L234A L235A, κλ-body: common heavy chain, kappa anti-IL2Rγ light chain (AM1), lambda anti-HER2 light chain (N2-19); also called AM1N2-19/N) heavy: not shown light 1: DIQMTQSPSSLSASVGDRVTITCRASQSIYYYLNWYQQKPGKAPKLLIYDASALQSGVPSRFSGSGSGTDFTLTISSLQPEDFATYYCQQIDFTAGSITFGQGTKVEIKRTVAAPSVFIFPPSDEQLKSGTASVVCLLNNFYPREAKVQWKVDNALQSGNSQESVTEQDSKDSTYSLSSTLTLSKADYEKHKVYACEVTHQGLSSPVTKSFNRGEC light 2: QSVLTQPPSVSGAPGQRVTISCTGSSSNIENTHTVHWYQQLPGTAPKLLIYDASIRPSGVPDRFSGSKSGTSASLAITGLQAEDEADYYCQSYDWLRGAQVFGGGTKLTVLGQPKAAPSVTLFPPSSEELQANKATLVCLISDFYPGAVTVAWKADSSPVKAGVETTTPSKQSNNKYAASSYLSLTPEQWKSHRSYSCQVTHEGSTVEKTVAPTECS
binds | binds | AM4N2-19 (bispecific antibody, human IgG1, kappa, lambda, L234A L235A, κλ-body: common heavy chain, kappa anti-IL2Rγ light chain (AM4), lambda anti-HER2 light chain (N2-19); also called AM4N2-19/N) heavy: not shown light 1: DIQMTQSPSTLSASVGDRVTITCRASQTIYGPLNWYQQKPGKAPKLLIYSTSYLESGVPSRFSGSGSGTEFTLTISSLQPDDFATYYCQQAGYASAPTFGQGTKVEIKRTVAAPSVFIFPPSDEQLKSGTASVVCLLNNFYPREAKVQWKVDNALQSGNSQESVTEQDSKDSTYSLSSTLTLSKADYEKHKVYACEVTHQGLSSPVTKSFNRGEC light 2: QSVLTQPPSVSGAPGQRVTISCTGSSSNIENTHTVHWYQQLPGTAPKLLIYDASIRPSGVPDRFSGSKSGTSASLAITGLQAEDEADYYCQSYDWLRGAQVFGGGTKLTVLGQPKAAPSVTLFPPSSEELQANKATLVCLISDFYPGAVTVAWKADSSPVKAGVETTTPSKQSNNKYAASSYLSLTPEQWKSHRSYSCQVTHEGSTVEKTVAPTECS
binds | binds | AM9N2-19 (bispecific antibody, human IgG1, kappa, lambda, L234A L235A, κλ-body: common heavy chain, kappa anti-IL2Rγ light chain (AM9), lambda anti-HER2 light chain (N2-19); also called AM9N2-19/N) heavy: not shown light 1: not shown light 2: QSVLTQPPSVSGAPGQRVTISCTGSSSNIENTHTVHWYQQLPGTAPKLLIYDASIRPSGVPDRFSGSKSGTSASLAITGLQAEDEADYYCQSYDWLRGAQVFGGGTKLTVLGQPKAAPSVTLFPPSSEELQANKATLVCLISDFYPGAVTVAWKADSSPVKAGVETTTPSKQSNNKYAASSYLSLTPEQWKSHRSYSCQVTHEGSTVEKTVAPTECS
binds | binds | AM6N2-19 (bispecific antibody, human IgG1, kappa, lambda, L234A L235A, κλ-body: common heavy chain, kappa anti-IL2Rγ light chain (AM6), lambda anti-HER2 light chain (N2-19); also called AM6N2-19/N) heavy: not shown light 1: not shown light 2: QSVLTQPPSVSGAPGQRVTISCTGSSSNIENTHTVHWYQQLPGTAPKLLIYDASIRPSGVPDRFSGSKSGTSASLAITGLQAEDEADYYCQSYDWLRGAQVFGGGTKLTVLGQPKAAPSVTLFPPSSEELQANKATLVCLISDFYPGAVTVAWKADSSPVKAGVETTTPSKQSNNKYAASSYLSLTPEQWKSHRSYSCQVTHEGSTVEKTVAPTECS
binds | binds | AM7N2-19 (bispecific antibody, human IgG1, kappa, lambda, L234A L235A, κλ-body: common heavy chain, kappa anti-IL2Rγ light chain (AM7), lambda anti-HER2 light chain (N2-19); also called AM7N2-19/N) heavy: not shown light 1: DIQLTQSPSFLSASVGDRVTITCRASQDIGIELAWYQQKPGKAPKLLIYFESHLQSGVPSRFSGSGSGTEFTLTISSLQPEDFATYYCQQIRIDPTFGQGTKVEIKRTVAAPSVFIFPPSDEQLKSGTASVVCLLNNFYPREAKVQWKVDNALQSGNSQESVTEQDSKDSTYSLSSTLTLSKADYEKHKVYACEVTHQGLSSPVTKSFNRGEC light 2: QSVLTQPPSVSGAPGQRVTISCTGSSSNIENTHTVHWYQQLPGTAPKLLIYDASIRPSGVPDRFSGSKSGTSASLAITGLQAEDEADYYCQSYDWLRGAQVFGGGTKLTVLGQPKAAPSVTLFPPSSEELQANKATLVCLISDFYPGAVTVAWKADSSPVKAGVETTTPSKQSNNKYAASSYLSLTPEQWKSHRSYSCQVTHEGSTVEKTVAPTECS
binds | binds | AM5N2-19 (bispecific antibody, human IgG1, kappa, lambda, L234A L235A, κλ-body: common heavy chain, kappa anti-IL2Rγ light chain (AM5), lambda anti-HER2 light chain (N2-19); also called AM5N2-19/N) heavy: not shown light 1: not shown light 2: QSVLTQPPSVSGAPGQRVTISCTGSSSNIENTHTVHWYQQLPGTAPKLLIYDASIRPSGVPDRFSGSKSGTSASLAITGLQAEDEADYYCQSYDWLRGAQVFGGGTKLTVLGQPKAAPSVTLFPPSSEELQANKATLVCLISDFYPGAVTVAWKADSSPVKAGVETTTPSKQSNNKYAASSYLSLTPEQWKSHRSYSCQVTHEGSTVEKTVAPTECS
binds | binds | AM2N2-19 (bispecific antibody, human IgG1, kappa, lambda, L234A L235A, κλ-body: common heavy chain, kappa anti-IL2Rγ light chain (AM2), lambda anti-HER2 light chain (N2-19); also called AM2N2-19/N) heavy: not shown light 1: DIQLTQSPSFLSASVGDRVTITCRASQTIDAPLRWYQQKPGKAPKLLIYLTSSLQSGVPSRFSGSGSGTEFTLTISSLQPEDFATYYCQQGYAAGPSTFGQGTKVEIKRTVAAPSVFIFPPSDEQLKSGTASVVCLLNNFYPREAKVQWKVDNALQSGNSQESVTEQDSKDSTYSLSSTLTLSKADYEKHKVYACEVTHQGLSSPVTKSFNRGEC light 2: QSVLTQPPSVSGAPGQRVTISCTGSSSNIENTHTVHWYQQLPGTAPKLLIYDASIRPSGVPDRFSGSKSGTSASLAITGLQAEDEADYYCQSYDWLRGAQVFGGGTKLTVLGQPKAAPSVTLFPPSSEELQANKATLVCLISDFYPGAVTVAWKADSSPVKAGVETTTPSKQSNNKYAASSYLSLTPEQWKSHRSYSCQVTHEGSTVEKTVAPTECS
binds | binds | AM10N2-19 (bispecific antibody, human IgG1, kappa, lambda, L234A L235A, κλ-body: common heavy chain, kappa anti-IL2Rγ light chain (AM10), lambda anti-HER2 light chain (N2-19); also called AM10N2-19/N) heavy: not shown light 1: not shown light 2: QSVLTQPPSVSGAPGQRVTISCTGSSSNIENTHTVHWYQQLPGTAPKLLIYDASIRPSGVPDRFSGSKSGTSASLAITGLQAEDEADYYCQSYDWLRGAQVFGGGTKLTVLGQPKAAPSVTLFPPSSEELQANKATLVCLISDFYPGAVTVAWKADSSPVKAGVETTTPSKQSNNKYAASSYLSLTPEQWKSHRSYSCQVTHEGSTVEKTVAPTECS
binds | binds | AM3N2-19 (bispecific antibody, human IgG1, kappa, lambda, L234A L235A, κλ-body: common heavy chain, kappa anti-IL2Rγ light chain (AM3), lambda anti-HER2 light chain (N2-19); also called AM3N2-19/N) heavy: not shown light 1: DIQMTQSPSTLSASVGDTVTITCRASHYITTWLAWYQQKPGKAPKLLIYDVSSLESGVPSRFRGRGSGTEFTLTISSLQPDDFATYYCQQYESYSPTFGQGTKVEIKRTVAAPSVFIFPPSDEQLKSGTASVVCLLNNFYPREAKVQWKVDNALQSGNSQESVTEQDSKDSTYSLSSTLTLSKADYEKHKVYACEVTHQGLSSPVTKSFNRGEC light 2: QSVLTQPPSVSGAPGQRVTISCTGSSSNIENTHTVHWYQQLPGTAPKLLIYDASIRPSGVPDRFSGSKSGTSASLAITGLQAEDEADYYCQSYDWLRGAQVFGGGTKLTVLGQPKAAPSVTLFPPSSEELQANKATLVCLISDFYPGAVTVAWKADSSPVKAGVETTTPSKQSNNKYAASSYLSLTPEQWKSHRSYSCQVTHEGSTVEKTVAPTECS
binds | binds | AM11N2-19 (bispecific antibody, human IgG1, kappa, lambda, L234A L235A, κλ-body: common heavy chain, kappa anti-IL2Rγ light chain (AM11), lambda anti-HER2 light chain (N2-19); also called AM11N2-19/N) heavy: not shown light 1: EIVLTQSPGTLSLSPGERATLSCRASQNVNHNFLTWYQQKPGQAPRLLIYSASARATGIPDRFSGSGSGTDFTLTISRLEPEDFAVYYCQQFNYAPLTFGQGTKVEIKRTVAAPSVFIFPPSDEQLKSGTASVVCLLNNFYPREAKVQWKVDNALQSGNSQESVTEQDSKDSTYSLSSTLTLSKADYEKHKVYACEVTHQGLSSPVTKSFNRGEC light 2: QSVLTQPPSVSGAPGQRVTISCTGSSSNIENTHTVHWYQQLPGTAPKLLIYDASIRPSGVPDRFSGSKSGTSASLAITGLQAEDEADYYCQSYDWLRGAQVFGGGTKLTVLGQPKAAPSVTLFPPSSEELQANKATLVCLISDFYPGAVTVAWKADSSPVKAGVETTTPSKQSNNKYAASSYLSLTPEQWKSHRSYSCQVTHEGSTVEKTVAPTECS
binds | binds | AM8N2-19 (bispecific antibody, human IgG1, kappa, lambda, L234A L235A, κλ-body: common heavy chain, kappa anti-IL2Rγ light chain (AM8), lambda anti-HER2 light chain (N2-19); also called AM8N2-19/N) heavy: not shown light 1: EIVLTQSPGTLSLSPGERATLSCRASQDVATRGLAWYQQKPGQAPRLLIYGASSRATGIPDRFSGSGSGTDFTLTISRLEPEDFAVYYCQQYELEHPATFGQGTKVEIKRTVAAPSVFIFPPSDEQLKSGTASVVCLLNNFYPREAKVQWKVDNALQSGNSQESVTEQDSKDSTYSLSSTLTLSKADYEKHKVYACEVTHQGLSSPVTKSFNRGEC light 2: QSVLTQPPSVSGAPGQRVTISCTGSSSNIENTHTVHWYQQLPGTAPKLLIYDASIRPSGVPDRFSGSKSGTSASLAITGLQAEDEADYYCQSYDWLRGAQVFGGGTKLTVLGQPKAAPSVTLFPPSSEELQANKATLVCLISDFYPGAVTVAWKADSSPVKAGVETTTPSKQSNNKYAASSYLSLTPEQWKSHRSYSCQVTHEGSTVEKTVAPTECS
binds | – | AM5O38 (bispecific antibody, human IgG1, kappa, lambda, L234A L235A, κλ-body: common heavy chain, kappa anti-IL2Rγ light chain (AM5), lambda anti-MSLN light chain (O38); also called AM5O38/N) heavy: not shown light 1: not shown light 2: QPVLTQPASLSASPGASASLTCTLRSGINVRDYRIFWYQQKPGSPPQYLLRYKSASDKQQGSGVPSRFSGSKDASANAGILLISGLQSEDEADYYCMIWHHDSEGHAFVFGGGTKLTVLGQPKAAPSVTLFPPSSEELQANKATLVCLISDFYPGAVTVAWKADSSPVKAGVETTTPSKQSNNKYAASSYLSLTPEQWKSHRSYSCQVTHEGSTVEKTVAPTECS
binds | – | AM5O41 (bispecific antibody, human IgG1, kappa, lambda, L234A L235A, κλ-body: common heavy chain, kappa anti-IL2Rγ light chain (AM5), lambda anti-MSLN light chain (O41); also called AM5O41/N) heavy: not shown light 1: not shown light 2: SYVLTQPPSVSVAPGKTARITCGGNKIGHRAVHWYQQKPGQAPVLVIYYTYERPSGIPERFSGSNSGNTATLTISRVEAGDEADYYCQVWDWYSEGGVVFGGGTKLTVLGQPKAAPSVTLFPPSSEELQANKATLVCLISDFYPGAVTVAWKADSSPVKAGVETTTPSKQSNNKYAASSYLSLTPEQWKSHRSYSCQVTHEGSTVEKTVAPTECS
